We go through 32 molecules from US20260115256A1 (HANGZHOU SCIWIND BIOSCIENCES, published 2026).

*1 amine or outer side, *2 acyl side, *3 side chain or, on linkers, in order; H or OH if unused. Bridges are numbered along the chain shown (N, C = ends). Where no end group is shown, it is not given here. Side-chain parts run from the residue outwards. [ ]: non-standard residue; d: D form. The star is where a group is joined. C20 diacid = O=C(O)CCCCCCCCCCCCCCCCCCC(=O)*; C18 diacid = O=C(O)CCCCCCCCCCCCCCCCC(=O)*; γGlu = O=C(O)[C@H](CCC(=O)[*:2])N[*:1]; Hyp = O=C(O)[C@@H]1C[C@@H](O)CN1; AEEA = NCCOCCOCC(=O)O

The target in this assay is T1, human amylin receptor (AMY3) on CHO-K1/Ga15/AMY3 cells (human, UniProt P30988 25-474; O60896 24-148).
T1 sequence (looked up) 1: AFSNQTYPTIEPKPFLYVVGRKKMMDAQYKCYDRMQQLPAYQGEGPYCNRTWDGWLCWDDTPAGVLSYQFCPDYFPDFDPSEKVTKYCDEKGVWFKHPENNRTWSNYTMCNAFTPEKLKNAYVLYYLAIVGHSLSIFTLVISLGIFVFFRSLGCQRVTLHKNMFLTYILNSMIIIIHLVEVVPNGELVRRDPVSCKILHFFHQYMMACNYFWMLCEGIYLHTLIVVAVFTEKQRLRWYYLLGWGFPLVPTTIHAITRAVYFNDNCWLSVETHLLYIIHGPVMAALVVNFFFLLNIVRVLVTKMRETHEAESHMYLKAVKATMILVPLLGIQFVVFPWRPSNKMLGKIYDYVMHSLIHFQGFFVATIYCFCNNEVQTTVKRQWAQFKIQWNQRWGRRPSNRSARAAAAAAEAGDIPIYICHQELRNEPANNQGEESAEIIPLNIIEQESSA
T1 sequence (looked up) 2: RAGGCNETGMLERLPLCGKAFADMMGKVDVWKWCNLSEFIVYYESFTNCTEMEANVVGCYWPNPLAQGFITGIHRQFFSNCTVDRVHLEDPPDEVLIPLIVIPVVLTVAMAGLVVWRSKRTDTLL
Put plainly: cell-based or functional assay.

For RCNTATCATQRLADFLRHSSK([AEEA-γGlu-C18 diacid])NLGPILPPTNVGSNT[Hyp]-NH2 (disulfide 2-7 (inferred)) [PD115], the “EC50, CRE-luciferase assay” value worked out at 0.011 nM.

Consider RCNTATCATQRLADFLRHSK([AEEA-AEEA-γGlu-C20 diacid])NNLGPILPPTNVGSNT[Hyp]-NH2 (disulfide 2-7 (inferred)) [PD095], for which the “EC50, CRE-luciferase assay” value amounted to 0.047 nM.

RCNTATCATQRLADFLRHSSNNLK([AEEA-γGlu-C18 diacid])PILPPTNVGSNT[Hyp]-NH2 (disulfide 2-7 (inferred)) [PD108]: the “EC50, CRE-luciferase assay” value is 0.028 nM.

For RCNTATCATQRLADFLRHK([AEEA-γGlu-C18 diacid])SNNLGPILPPTNVGSNT[Hyp]-NH2 (disulfide 2-7 (inferred)) [PD119], the “EC50, CRE-luciferase assay” value stood at 0.024 nM.

As for RCNTATCATQRLADFLRHSSNNLGK([AEEA-AEEA-γGlu-C20 diacid])ILPPTNVGSNT[Hyp]-NH2 (disulfide 2-7 (inferred)) [PD103], the “EC50, CRE-luciferase assay” value came out at 0.033 nM.

RCNTATCATQRLADFLRHSSNNLGK([AEEA-γGlu-C18 diacid])ILPPTNVGSNT[Hyp]-NH2 (disulfide 2-7 (inferred)) [PD121]: the “EC50, CRE-luciferase assay” value is 0.018 nM.

As for RCNTATCATQRLADFLRHK([AEEA-AEEA-γGlu-C18 diacid])SNNLGPILPPTNVGSNT[Hyp]-NH2 (disulfide 2-7 (inferred)) [PD101], the “EC50, CRE-luciferase assay” value is 0.012 nM.

Consider RCNTATCATQRLADFLRHSK([γGlu-C18 diacid])NNLGPILPPTNVGSNT[Hyp]-NH2 (disulfide 2-7 (inferred)) [PD096], for which the “EC50, CRE-luciferase assay” value amounted to 0.042 nM.

On to RCNTATCATQRLADFLRHK([AEEA-AEEA-γGlu-C20 diacid])SNNLGPILPPTNVGSNT[Hyp]-NH2 (disulfide 2-7 (inferred)) [PD099], for which the “EC50, CRE-luciferase assay” value came out at 0.033 nM.

Turning to RCNTATCATQRLADFLRHSSK([AEEA-γGlu-C20 diacid])NLGPILPPTNVGSNT[Hyp]-NH2 (disulfide 2-7 (inferred)) [PD114], the “EC50, CRE-luciferase assay” value came out at 0.029 nM.

In the case of RCNTATCATQRLADFLRHK([γGlu-C18 diacid])SNNLGPILPPTNVGSNT[Hyp]-NH2 (disulfide 2-7 (inferred)) [PD100], the “EC50, CRE-luciferase assay” value was found to be 0.06 nM.

As to RCNTATCATQRLADFLRHK([γGlu-C20 diacid])SNNLGPILPPTNVGSNT[Hyp]-NH2 (disulfide 2-7 (inferred)) [PD098], the “EC50, CRE-luciferase assay” value is 0.077 nM.

Take RCNTATCATQRLADFLRHSSNNLK([γGlu-C18 diacid])PILPPTNVGSNT[Hyp]-NH2 (disulfide 2-7 (inferred)) [PD107]: the “EC50, CRE-luciferase assay” value was 0.027 nM.

Take RCNTATCATQRLADFLRHSSNNLGK([AEEA-γGlu-C20 diacid])ILPPTNVGSNT[Hyp]-NH2 (disulfide 2-7 (inferred)) [PD120]: the “EC50, CRE-luciferase assay” value was determined as 0.023 nM.

Regarding RCNTATCATQRLADFLRHSK([AEEA-AEEA-γGlu-C18 diacid])NNLGPILPPTNVGSNT[Hyp]-NH2 (disulfide 2-7 (inferred)) [PD097], the “EC50, CRE-luciferase assay” value stood at 0.014 nM.

RCNTATCATQRLADFLRHSSNNLGK([γGlu-C20 diacid])ILPPTNVGSNT[Hyp]-NH2 (disulfide 2-7 (inferred)) [PD102]: the “EC50, CRE-luciferase assay” value was determined as 0.033 nM.

Turning to RCNTATCATQRLADFLRHSK([AEEA-γGlu-C18 diacid])NNLGPILPPTNVGSNT[Hyp]-NH2 (disulfide 2-7 (inferred)) [PD117], the “EC50, CRE-luciferase assay” value amounted to 0.014 nM.

B1: PD123 (peptide)
peptide: {C20 diacid-γGlu-AEEA-AEEA}-KCNTATCATQRLADFLRHSSNNLGPILPPTNVGSNT[Hyp]-NH2
modifications: disulfide 2-7 (inferred); not fully specified; printed as KCNTATCATQRLADFLRHSSNNLGPILPPTNVGSNT-trans-Hyp-NH2
B1: the “EC50, CRE-luciferase assay” value turned out to be 0.068 nM.

Consider RCNTATCATQRLADFLRHSSNNLGK([AEEA-AEEA-γGlu-C18 diacid])ILPPTNVGSNT[Hyp]-NH2 (disulfide 2-7 (inferred)) [PD105], for which the “EC50, CRE-luciferase assay” value was 0.033 nM.

As to RCNTATCATQRLADFLRHSSNNLK([AEEA-γGlu-C20 diacid])PILPPTNVGSNT[Hyp]-NH2 (disulfide 2-7 (inferred)) [PD106], the “EC50, CRE-luciferase assay” value is 0.026 nM.

As to RCNTATCATQRLADFLRHSSNNK([AEEA-γGlu-C20 diacid])GPILPPTNVGSNT[Hyp]-NH2 (disulfide 2-7 (inferred)) [PD110], the “EC50, CRE-luciferase assay” value was determined as 0.039 nM.

On to RCNTATCATQRLADFLRHSSNK([AEEA-γGlu-C18 diacid])LGPILPPTNVGSNT[Hyp]-NH2 (disulfide 2-7 (inferred)) [PD113], for which the “EC50, CRE-luciferase assay” value was determined as 0.017 nM.

As for RCNTATCATQRLADFLRHK([AEEA-γGlu-C20 diacid])SNNLGPILPPTNVGSNT[Hyp]-NH2 (disulfide 2-7 (inferred)) [PD118], the “EC50, CRE-luciferase assay” value was 0.032 nM.

RCNTATCATQRLAEFLRHSSNNLK([γGlu-C20 diacid])PILPPTNVGSNTP-NH2 (disulfide 2-7 (inferred)) [PD009]: the “EC50, CRE-luciferase assay” value was found to be 0.067 nM.

Turning to RCNTATCATQRLADFLRHSSNNK([AEEA-γGlu-C18 diacid])GPILPPTNVGSNT[Hyp]-NH2 (disulfide 2-7 (inferred)) [PD111], the “EC50, CRE-luciferase assay” value is 0.008 nM.

Regarding RCNTATCATQRLADFLRHSSNNLGK([γGlu-C18 diacid])ILPPTNVGSNT[Hyp]-NH2 (disulfide 2-7 (inferred)) [PD104], the “EC50, CRE-luciferase assay” value was 0.011 nM.

Consider RCNTATCATQRLAEFLRHSSNNLK([γGlu-C20 diacid])PILPPTNVGSNTY-NH2 (disulfide 2-7 (inferred)) [PD017], for which the “EC50, CRE-luciferase assay” value came to 0.772 nM.

B2: PD122 (peptide)
peptide: {C20 diacid-γGlu-AEEA}-KCNTATCATQRLADFLRHSSNNLGPILPPTNVGSNT[Hyp]-NH2
modifications: disulfide 2-7 (inferred); not fully specified; printed as KCNTATCATQRLADFLRHSSNNLGPILPPTNVGSNT-trans-Hyp-NH2
Take B2: the “EC50, CRE-luciferase assay” value came to 0.048 nM.

In the case of RCNTATCATQRLADFLRHSSNK([AEEA-γGlu-C20 diacid])LGPILPPTNVGSNT[Hyp]-NH2 (disulfide 2-7 (inferred)) [PD112], the “EC50, CRE-luciferase assay” value is 0.03 nM.

On to RCNTATCATQRLADFLRHSSNNLK([AEEA-AEEA-γGlu-C18 diacid])PILPPTNVGSNT[Hyp]-NH2 (disulfide 2-7 (inferred)) [PD109], for which the “EC50, CRE-luciferase assay” value was found to be 0.01 nM.

As for RCNTATCATQRLAEFLRHSSNNK([γGlu-C20 diacid])GPILPPTNVGSNTP-NH2 (disulfide 2-7 (inferred)) [PD008], the “EC50, CRE-luciferase assay” value was 0.281 nM.

In the case of RCNTATCATQRLADFLRHSK([AEEA-γGlu-C20 diacid])NNLGPILPPTNVGSNT[Hyp]-NH2 (disulfide 2-7 (inferred)) [PD116], the “EC50, CRE-luciferase assay” value stood at 0.033 nM.
